In assay [1] the target is T1, Biotin PSGL-1(42-62) peptide, unmodified (human, C-terminal Lys-biotin).
T1 construct: Residues 42-62 followed by GGGK-biotin; also called WT; wild-type
T1 peptide: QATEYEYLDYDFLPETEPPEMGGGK
The assay is described as follows: ELISA, immobilized biotin peptide. The procedure:
(§1) A typical ELISA was performed by coating high binding half-well plates (Corning Cat. #3690) with 3 ug/mL/25 ul per well of biotinylated N-terminal PSGL-1 peptides, which incorporated residues 42 to 62 of the protein, in PBS, pH 7.4, overnight at 4° C. The peptide was unmodified or contained sulfated tyrosine at all 3 tyrosine positions (46, 48, and 51) or at one position (tyr51) (Table 7).
(§2) PSGL-1 protein or peptide served as a positive control. […] […] […] For each antibody, duplicate values were averaged and average assay background was subtracted.
A general note: An ELISA detects its analyte on a solid surface through an enzyme-linked reagent.

Assay [2] has as its target T2, Biotin Y46,48,51(SO3) PSGL-1(42-62) peptide (human, sulfotyrosine at Y46, Y48 and Y51; C-terminal Lys-biotin).
T2 construct: also called fully sulfated N-terminal PSGL-1 peptide
T2 peptide: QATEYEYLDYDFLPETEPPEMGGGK
The assay is described as follows: ELISA, immobilized biotin peptide. The protocol: as §1, §2

In assay [3] the target is T3, Scrambled Y42,52,63(SO3) PSGL-1(42-62) biotin peptide (sulfotyrosine at peptide positions 1, 11 and 22; C-terminal Lys-biotin).
T3 peptide: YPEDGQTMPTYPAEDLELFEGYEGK
The assay is described as follows: ELISA, immobilized biotin peptide. The protocol:
as §1, §2

For another assay, the target named is T4, SulfoCCK biotin peptide (human).
T4 construct: also called sulfotyrosine CCK peptide
T4 peptide: SHRISDRD[sY]MGWMDFGGK(Biotin)
The assay is described as follows: ELISA, 50 nM mAb. The procedure: (§3) Recombinant PSGL-1-hFc1 chimera protein consisting of PSGL-1's extracellular domain (ECD) served as a positive control. […] Primary antibody was added (25 ul per well) in duplicate at 50 nM in assay buffer (blocking buffer containing 0.05% Tween®20) into test and control (just blocked) wells and the plate incubated for 45 min at 37° C.

Assay [4] deals with T5, Human fibrinogen protein (ThermoFisher, RP-43142) (human, UniProt P02671 20-629; P02675 31-491; P02679 27-453, limits assumed, natural sulfotyrosines).
T5 construct: mature; Native dimer with 3 pairs of non-identical chains; also called gamma-fibrinogen; γ fibrinogen protein
T5 sequence (looked up) 1: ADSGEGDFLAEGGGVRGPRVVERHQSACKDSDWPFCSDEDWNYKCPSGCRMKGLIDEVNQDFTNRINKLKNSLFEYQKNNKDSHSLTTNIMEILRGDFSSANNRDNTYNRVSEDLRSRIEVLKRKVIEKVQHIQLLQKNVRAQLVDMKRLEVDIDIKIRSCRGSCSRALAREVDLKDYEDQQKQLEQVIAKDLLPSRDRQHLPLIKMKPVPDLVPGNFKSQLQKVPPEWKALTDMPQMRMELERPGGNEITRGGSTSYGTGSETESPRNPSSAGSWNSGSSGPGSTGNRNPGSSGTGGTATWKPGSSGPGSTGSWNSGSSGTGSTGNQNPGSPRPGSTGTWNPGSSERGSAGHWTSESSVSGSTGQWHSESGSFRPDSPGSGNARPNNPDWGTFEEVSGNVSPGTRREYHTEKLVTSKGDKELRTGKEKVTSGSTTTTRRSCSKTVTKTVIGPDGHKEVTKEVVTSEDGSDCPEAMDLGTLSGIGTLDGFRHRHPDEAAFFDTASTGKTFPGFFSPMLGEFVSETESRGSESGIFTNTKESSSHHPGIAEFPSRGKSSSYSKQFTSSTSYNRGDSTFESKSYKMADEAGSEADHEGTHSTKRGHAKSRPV
T5 sequence (looked up) 2: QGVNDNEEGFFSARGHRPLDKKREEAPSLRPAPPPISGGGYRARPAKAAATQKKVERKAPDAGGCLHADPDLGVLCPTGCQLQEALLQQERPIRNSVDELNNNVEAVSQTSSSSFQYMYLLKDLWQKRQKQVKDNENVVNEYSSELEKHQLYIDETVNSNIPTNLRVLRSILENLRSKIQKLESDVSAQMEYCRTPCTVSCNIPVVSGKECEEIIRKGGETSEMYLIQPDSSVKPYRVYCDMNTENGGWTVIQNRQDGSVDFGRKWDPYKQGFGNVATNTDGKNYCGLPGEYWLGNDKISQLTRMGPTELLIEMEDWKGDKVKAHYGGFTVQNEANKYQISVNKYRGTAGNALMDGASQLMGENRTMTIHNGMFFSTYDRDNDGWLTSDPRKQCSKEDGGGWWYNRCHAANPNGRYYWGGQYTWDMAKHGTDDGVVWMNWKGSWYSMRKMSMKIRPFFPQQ
T5 sequence (looked up) 3: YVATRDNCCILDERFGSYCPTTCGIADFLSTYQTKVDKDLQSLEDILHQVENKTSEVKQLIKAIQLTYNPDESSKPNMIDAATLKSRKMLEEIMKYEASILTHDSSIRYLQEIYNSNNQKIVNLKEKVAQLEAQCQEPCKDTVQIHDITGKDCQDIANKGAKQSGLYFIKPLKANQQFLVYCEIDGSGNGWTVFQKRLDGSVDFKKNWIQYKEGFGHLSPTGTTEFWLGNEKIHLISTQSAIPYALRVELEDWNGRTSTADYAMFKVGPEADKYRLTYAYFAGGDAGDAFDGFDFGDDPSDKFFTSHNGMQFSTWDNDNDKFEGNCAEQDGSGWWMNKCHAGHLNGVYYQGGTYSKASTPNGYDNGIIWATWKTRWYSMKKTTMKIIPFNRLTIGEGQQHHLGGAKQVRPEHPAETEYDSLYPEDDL
The assay is described as follows: ELISA, 50 nM mAb. The procedure:
as §3

The target of assay [5] is T6, Human complement C4 protein (Millipore Sigma, Cat. 204886) (human, UniProt P0C0L4 20-675; P0C0L4 680-1446; P0C0L4 1454-1744, limits assumed, natural sulfotyrosines).
T6 construct: mature
T6 sequence (P0C0L4 20-675 limits assumed, form in doubt, chain 1 of 3): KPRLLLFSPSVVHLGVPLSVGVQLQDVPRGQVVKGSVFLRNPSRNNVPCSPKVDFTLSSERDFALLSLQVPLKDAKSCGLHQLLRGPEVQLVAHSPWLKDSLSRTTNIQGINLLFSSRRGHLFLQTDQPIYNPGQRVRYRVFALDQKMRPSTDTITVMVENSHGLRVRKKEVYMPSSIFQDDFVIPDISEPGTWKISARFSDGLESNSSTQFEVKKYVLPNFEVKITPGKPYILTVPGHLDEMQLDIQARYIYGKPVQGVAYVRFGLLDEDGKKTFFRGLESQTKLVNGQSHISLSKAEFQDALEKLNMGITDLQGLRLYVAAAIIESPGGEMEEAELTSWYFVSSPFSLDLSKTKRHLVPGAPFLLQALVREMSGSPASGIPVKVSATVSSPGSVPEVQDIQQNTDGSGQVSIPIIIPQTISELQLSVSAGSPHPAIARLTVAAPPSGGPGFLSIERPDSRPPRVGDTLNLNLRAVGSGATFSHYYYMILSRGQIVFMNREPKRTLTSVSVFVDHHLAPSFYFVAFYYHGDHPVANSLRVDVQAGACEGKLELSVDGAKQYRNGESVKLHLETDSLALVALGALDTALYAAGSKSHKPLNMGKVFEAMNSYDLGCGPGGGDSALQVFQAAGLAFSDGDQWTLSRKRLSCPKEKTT
T6 sequence (P0C0L4 680-1446 limits assumed, form in doubt, chain 2 of 3): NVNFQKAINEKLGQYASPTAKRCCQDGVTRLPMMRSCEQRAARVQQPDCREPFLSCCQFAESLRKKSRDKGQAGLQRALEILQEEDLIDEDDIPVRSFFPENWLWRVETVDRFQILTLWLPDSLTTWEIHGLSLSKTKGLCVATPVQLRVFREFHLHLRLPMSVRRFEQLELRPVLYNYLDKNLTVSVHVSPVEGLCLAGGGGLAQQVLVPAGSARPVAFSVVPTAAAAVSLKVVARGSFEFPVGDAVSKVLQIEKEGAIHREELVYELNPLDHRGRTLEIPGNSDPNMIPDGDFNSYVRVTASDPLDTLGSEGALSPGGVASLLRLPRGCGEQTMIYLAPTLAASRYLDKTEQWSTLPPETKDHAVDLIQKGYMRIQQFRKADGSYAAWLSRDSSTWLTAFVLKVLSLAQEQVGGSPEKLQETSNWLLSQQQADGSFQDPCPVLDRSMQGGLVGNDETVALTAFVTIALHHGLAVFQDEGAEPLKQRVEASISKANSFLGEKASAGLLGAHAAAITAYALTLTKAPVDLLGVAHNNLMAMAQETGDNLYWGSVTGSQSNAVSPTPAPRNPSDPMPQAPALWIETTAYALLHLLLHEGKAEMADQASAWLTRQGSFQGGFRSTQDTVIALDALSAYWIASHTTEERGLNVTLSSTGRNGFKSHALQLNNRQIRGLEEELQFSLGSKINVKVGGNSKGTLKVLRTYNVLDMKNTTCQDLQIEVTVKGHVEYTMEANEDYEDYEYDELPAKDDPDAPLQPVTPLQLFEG
T6 sequence (P0C0L4 1454-1744 limits assumed, form in doubt, chain 3 of 3): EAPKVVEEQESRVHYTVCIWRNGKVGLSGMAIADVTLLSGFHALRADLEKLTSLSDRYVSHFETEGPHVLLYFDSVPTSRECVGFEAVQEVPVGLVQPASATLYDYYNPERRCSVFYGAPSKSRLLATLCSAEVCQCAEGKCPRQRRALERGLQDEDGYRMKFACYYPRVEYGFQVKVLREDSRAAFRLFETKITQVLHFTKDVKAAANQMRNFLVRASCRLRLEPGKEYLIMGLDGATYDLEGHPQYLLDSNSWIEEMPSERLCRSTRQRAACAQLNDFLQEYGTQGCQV
The assay is described as follows: ELISA, 50 nM mAb. The procedure:
as §3

For assay [6], the target named is T7, Sulfotyrosine CCR2b biotin peptide (human).
T7 construct: also called CCR2b peptide
T7 peptide: TTFFD[sY]D[sY]GAPSHGGK(Biotin)
The assay is described as follows: ELISA, 50 nM mAb. The procedure: as §3

The target of assay [7] is T8, Sulfotyr fibrinogen γ peptide (not fully specified; Y8 and Y12 sulfated (SO3); C-terminal biotin).
T8 construct: also called Fibrinogen gamma peptide; human sulfotyrosinylated fibrinogen peptide
T8 peptide: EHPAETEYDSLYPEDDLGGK
The assay is described as follows: ELISA, 50 nM mAb. The protocol: as §3

The target of another assay is T9, SulfoTyr C4 peptide (not fully specified; Y4, Y7 and Y9 sulfated (SO3); C-terminal biotin).
T9 construct: also called C4 alpha chain peptide; human sulfotyrosinylated C4 peptide
T9 peptide: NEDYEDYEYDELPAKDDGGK
The assay is described as follows: ELISA, 50 nM mAb. The protocol: as §3

Assay [8] has as its target T10, Sulfotyrosine D6 biotin peptide (human).
T10 construct: also called D6 peptide
T10 peptide: ENSSFY[sY][sY]D[sY]LDEVAFGGK(Biotin)
The assay is described as follows: ELISA, 50 nM mAb. The protocol: as §3

In assay [9] the target is T11, Recombinant human PSGL-1(ECD)-hFc1 (R&D Systems, Cat. 3345-PS) (human, UniProt Q14242 42-305).
T11 construct: Bought; Gln42-Val295 counted on AAC50061; also called PSGL-1-Fc; PSGL-1-hFc1 chimera; not shown: human IgG1 Fc, Pro100-Lys330
T11 sequence: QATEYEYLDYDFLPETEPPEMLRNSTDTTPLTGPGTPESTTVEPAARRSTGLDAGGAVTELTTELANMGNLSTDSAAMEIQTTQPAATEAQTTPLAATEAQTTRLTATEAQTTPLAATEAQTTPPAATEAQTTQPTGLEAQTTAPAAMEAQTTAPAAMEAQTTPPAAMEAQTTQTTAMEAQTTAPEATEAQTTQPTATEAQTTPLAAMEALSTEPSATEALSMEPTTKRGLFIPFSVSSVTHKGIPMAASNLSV
The assay is described as follows: ELISA, 50 nM mAb. The protocol: as §3

Non-standard residues stand in square brackets, D forms with d. No end group written: not given here. *: point of attachment. Biotin = O=C1N[C@H]2[C@H](CS[C@H]2CCCCC(=O)*)N1; sY = N[C@@H](Cc1ccc(OS(=O)(=O)O)cc1)C(=O)O Where only a bound is given, the exact number is not on record here.

B1: 02E01 (antibody, IgG4, V domains shown)
VH: EVQLVQSGGGVVQPGRSLRLSCAASGFTFSRYGMHWVRQAPGKGLEWVSVISYDGNNKYYADSVKGRFTISRDNSKNTVYLQMNSLRADDTAVYYCARNVPVTNFGYWGQGTLVTVSS
VL: QSALTQPASVSGSPGQSITISCTGTSSDVGGYNYVSWYQQHPGKAPKLMIYDVSKRPSGVSNRFSGSKSGNTASLTISGLQAEDEADYYCSSYTRPGRVFGGGTKLTVL
Take B1: the results for the “A450nm, 20 nM mAb” value in assay [1], in [2] and in assay [3] were 2.07 A450nm, 2.5 A450nm and 0.03 A450nm, respectively. In addition, the binding result in [3] was “no binding (tested: 20 nM)”; in assay [4], “no binding (tested: 50 nM)”. The “binding normalized to PSGL-1” value with SulfoCCK biotin peptide was 0.5; in [4] it was -0.18; in assay [5] it was 0.87; in assay [6] it was 0.56; in assay [7], 1.13; in the assay with SulfoTyr C4 peptide, 0.94. In addition, the “binding normalized to PSGL-1” value in assay [8] amounted to 1.48.

B2: 03B04 (antibody, IgG4, V domains shown)
VH: EVKLLESGGGLVKPGGSLRLSCAASGFAFSRYTMNWVRQAPGKGLEWVSSISSSSSYIYYADSVKGRFTISRDNAKNSLVLQMNSLRPEDTAVYYCARGGIAANDYWGQGTLVTVSS
VL: EIVMTQTPLSLPVTLGQPASISCRSSRNLVHYDGNTYLSWFHQRPGQPPRRLIYKISNRESGVPDRFSGSGSGTDFTLKISRVEAEDVGVYYCLQHTHWPWTFGPGTKVEIK
A word on the EC50: it is the midpoint of the concentration-response curve. Consider B2, for which the EC50 in [1] amounted to 5.1 nM; in assay [2], 1.7 nM. The “A450nm, 20 nM mAb” value in assay [2] is 2.5 A450nm; in [3] it was 0.01 A450nm. For the same molecule, the binding result in assay [3] is given as “no binding (tested: 20 nM)”; in assay [4], “no binding (tested: 50 nM)”; in [6], “no binding (tested: 50 nM)”. The A450nm in [9] was found to be 1.7 A450nm. In addition, the “binding normalized to PSGL-1” value with SulfoCCK biotin peptide was 0.13; in [4] it was -0.07; in assay [5], 0.56; in [6] it was 0.01; in assay [7], 0.57; in the assay with SulfoTyr C4 peptide it was 0.41. Moreover, the “binding normalized to PSGL-1” value in assay [8] turned out to be 0.42.

B3: 02E06 (antibody, IgG4, V domains shown)
VH: QVQLVQSGAEVKKPGASVKVSCKASGYSFTDYYMHWVRQAPGQGLEWMGWMNPNSGNTGYAQTFQGRVTMTRNTSISTAYMELSSLRSEDTAVYYCARGRRVRGTPTFEYWGQGTLVTVSS
VL: QSVVTQPPSASGTPGQRVTISCSGRSSNIGSYTVNWFQHLPGTGPKLLIYGNNQRPSGVPGRFSGSKSGTSASLAISGLQSNDEATYYCAAWDDSLNGHYVFGTGTKVTVL
With B3, the values for the EC50 in [1] and in [2] were over 500 nM and 0.17 nM, respectively. For the same molecule, the figures for the “A450nm, 20 nM mAb” value in assay [2] and in assay [3] were 2.6 A450nm and 0.12 A450nm, respectively. Moreover, the A450nm in [9] stood at 1.8 A450nm. Further, the “binding normalized to PSGL-1” value came out at 1.21 in the assay with SulfoCCK biotin peptide; 0.2 in assay [4]; 1.24 in [5]; 1.19 in assay [6]; 1.34 in [7]; 1.28 in the assay with SulfoTyr C4 peptide.

B4: 08C07 (antibody, IgG4, V domains shown)
VH: QMQLVQSGAEVKKPGSSVKVSCKASGGTFSNYGMIWVRQAPRQGLEWMGRIIPFLDKPDYSEKFQDRITFTADKSTSTVYMELRGLRSDDTAVYYCAKWTSTLQGITTGQTWGQGTLVTVSS
VL: QPVLTQPPSASGTPGQRVTISCSGSSSNIGGSYMYWYQQFPGTAPKLLIYRNNQRPSGVPDRFSGSKSGTSASLAISGLRSEDEADYYCAAWDVSLSGWVFGGGTKLTVL
As to B4, the “A450nm, 20 nM mAb” value in [2] came out at 2.6 A450nm. Besides, the binding result in assay [3] is listed as “no binding (tested: 20 nM)”. The A450nm in assay [9] is 1.78 A450nm. In addition, the “binding normalized to PSGL-1” value in the assay with SulfoCCK biotin peptide was 0.66; in assay [4] it was 0.03; in assay [5], 0.6; in assay [6], 0.79; in [7], 0.49; with SulfoTyr C4 peptide, 0.89. In [8], the “binding normalized to PSGL-1” value was 1.2.

B5: 07G01 (antibody, V domains shown)
VH: EVKLLESGGGLVRPGGSLRLSCAASGFTLSNYAMSWVRQAPGKGLEWVSAISGVGITTYYADSVKGRFIISRDNSKNTVYLQMNSLRAEDTAVYYCAKSRGGGAFDYWGQGTLVTVSS
VL: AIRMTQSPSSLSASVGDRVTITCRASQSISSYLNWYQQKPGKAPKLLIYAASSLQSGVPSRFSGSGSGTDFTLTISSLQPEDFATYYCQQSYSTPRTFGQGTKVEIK
B5: the EC50 was over 500 nM in [1] and 3.7 nM in assay [2]. Moreover, the “A450nm, 20 nM mAb” value in assay [2] came out at 2.58 A450nm. Also, in assay [3], the binding result is “no binding (tested: 20 nM)”. Besides, the A450nm in [9] stood at 1.69 A450nm. Also, the “binding normalized to PSGL-1” value was found to be 1.66 with SulfoCCK biotin peptide; 0.13 in assay [4]; 1.38 in assay [5]; 1.63 in assay [6]; 1.44 in assay [7]; 1.41 with SulfoTyr C4 peptide.

These data come from patent publication US20220396632A1 (VERSEAU THERAPEUTICS, published 2022).
